Values belong to the molecule of their own block, whether it stands above or below them.
Assays:
[1] = target: GRK3 (G protein‐coupled receptor kinase 3) (UniProt P35626); test: BRET, CB1R-YFP and GRK3-Rluc8; settings: sites S425,S429
β‐arrestin2 = β‐arrestin2 (UniProt P32121); test: BRET, CB1R-YFP and β-arrestin2-Rluc; settings: reference: wild type; sites S425,S429
CB1R_6A‐YFP = CB1R_6A‐YFP (human, UniProt P21554 1-472, serine/threonine residues of 460TMSVSTDTS468 to alanine); test: FRET or BRET
CB1R_2D‐YFP = CB1R_2D‐YFP (human, UniProt P21554 1-472, S425 mutated into aspartate | S429D); test: FRET or BRET
CB1R‐YFP (wild type) = CB1R‐YFP (wild type) (human, UniProt P21554 1-472); test: FRET or BRET
CB1R_6D‐YFP = CB1R_6D‐YFP (human, UniProt P21554 1-472, serine/threonine residues of 460TMSVSTDTS468 to aspartic acid); test: FRET or BRET
CB1R_2A‐YFP = CB1R_2A‐YFP (human, UniProt P21554 1-472, S425A | S429A); test: FRET or BRET
[2] = reference: 460…468 mutant, S425/S429 intact

- other: agonist-promoted mBRET at 5 min [1, 2]: weaker; reference 28.95 ± 2.18
- other: agonist-promoted mBRET at 30 min [1, 2]: stronger; reference 27.11 ± 3.71
Molecule: Cannabinoid receptor 1 (CB1R) (from UniProt P21554) 425AMGDA429_460…468

- other: agonist-promoted mBRET at 5 min (β‐arrestin2): weaker; reference 29.33 ± 1.93
- other: agonist-promoted mBRET at 5 min ([1]; reference: wild type): stronger; reference 23.62 ± 3.54
Molecule: Cannabinoid receptor 1 (CB1R) (from UniProt P21554) CB1R_2A (S425A, S429A)

- other: agonist-promoted mBRET at 5 min (β‐arrestin2): weaker; reference 29.93 ± 1.51
- other: agonist-promoted mBRET at 5 min ([1]; reference: wild type): same; reference 35.54 ± 2.26
Molecule: Cannabinoid receptor 1 (CB1R) (from UniProt P21554) CB1R_2D (S425D, S429D)

- agonist-promoted mBRET at 5 min (CB1R_6A‐YFP): 9.88 mBRET
- agonist-promoted mBRET at 5 min (CB1R_2D‐YFP): 31.7 mBRET
- agonist-promoted mBRET at 30 min (CB1R‐YFP (wild type)): 8.82 mBRET
- agonist-promoted mBRET at 5 min (CB1R_6D‐YFP): 27.5 mBRET
- agonist-promoted mBRET at 5 min (CB1R_2A‐YFP): 63.6 mBRET
B1: GRK3‐Rluc8 (enzyme, human, UniProt P35626 1-688, looked up)
chain: MADLEAVLADVSYLMAMEKSKATPAARASKRIVLPEPSIRSVMQKYLAERNEITFDKIFNQKIGFLLFKDFCLNEINEAVPQVKFYEEIKEYEKLDNEEDRLCRSRQIYDAYIMKELLSCSHPFSKQAVEHVQSHLSKKQVTSTLFQPYIEEICESLRGDIFQKFMESDKFTRFCQWKNVELNIHLTMNEFSVHRIIGRGGFGEVYGCRKADTGKMYAMKCLDKKRIKMKQGETLALNERIMLSLVSTGDCPFIVCMTYAFHTPDKLCFILDLMNGGDLHYHLSQHGVFSEKEMRFYATEIILGLEHMHNRFVVYRDLKPANILLDEHGHARISDLGLACDFSKKKPHASVGTHGYMAPEVLQKGTAYDSSADWFSLGCMLFKLLRGHSPFRQHKTKDKHEIDRMTLTVNVELPDTFSPELKSLLEGLLQRDVSKRLGCHGGGSQEVKEHSFFKGVDWQHVYLQKYPPPLIPPRGEVNAADAFDIGSFDEEDTKGIKLLDCDQELYKNFPLVISERWQQEVTETVYEAVNADTDKIEARKRAKNKQLGHEEDYALGKDCIMHGYMLKLGNPFLTQWQRRYFYLFPNRLEWRGEGESRQNLLTMEQILSVEETQIKDKKCILFRIKGGKQFVLQCESDPEFVQWKKELNETFKEAQRLLRRAPKFLNKPRSGTVELPKPSLCHRNSNGL
